{"source": "paper PMC11813165", "key": {"[1]": {"molecular_target": "NiV (Bangladesh strain) L (full-length, with C-terminal triple strep tag) (Nipah virus (Bangladesh strain)) (UniProt Q997F0)", "experiment": "mass photometry"}, "[2]": {"molecular_target": "NiV (Bangladesh strain) L (full-length, with C-terminal triple strep tag) (Nipah virus (Bangladesh strain)) (UniProt Q997F0)", "experiment": "mass photometry", "remark": "listed apart in the source"}}, "note": "Like-named read-outs stand apart in the source and are kept apart here."}
{"substance": "NiV (Bangladesh strain) P (full-length, with N-terminal polyhistidine tag) (from UniProt Q4VCQ1 1-709) (natural protein)", "values": [{"measurement": "stoichiometry N", "setting": "[1]", "result": 4}, {"measurement": "stoichiometry N", "setting": "[2]", "result": 3}]}
